{"source": "the supplement of paper PMC10567573", "parents": {"B1": {"name": "C20orf112 (parent)", "chain": "YANGGLNYSYRGYGALSSNLQPPA"}}}
{"variants_of": "B1", "assay": "protein stability index of a GFP-peptide fusion (GPS, HEK-293T) (PSI 1-6); higher = more stable", "conditions": "c terminus: a fixed tail appended"}
{"variant": "YANGGLNYSYRGYGALSSNKQPPA", "note": "[L20K]", "protein stability index": 2.27}
{"variant": "YANGGLNYSYRGYGALSSNCQPPA", "note": "[L20C]", "protein stability index": 2.7}
{"variant": "YANGGLNYSYRGYGALSSNGQPPA", "note": "[L20G]", "protein stability index": 2.28}
{"variant": "YANGGLNYSYRGYGALSSNDQPPA", "note": "[L20D]", "protein stability index": 1.36}
{"variant": "YANGGLNYSYRGYGALSSNMQPPA", "note": "[L20M]", "protein stability index": 1.52}
{"variant": "YANGGLNYSYRGYGALSSNHQPPA", "note": "[L20H]", "protein stability index": 1.69}
{"variant": "YANGGLNYSYRGYGALSSNQQPPA", "note": "[L20Q]", "protein stability index": 1.71}
{"variant": "YANGGLNYSYRGYGALSSNRQPPA", "note": "[L20R]", "protein stability index": 1.73}
{"variant": "YANGGLNYSYRGYGALSSNFQPPA", "note": "[L20F]", "protein stability index": 1.55}
{"variant": "YANGGLNYSYRGYGALSSNTQPPA", "note": "[L20T]", "protein stability index": 1.55}
{"variant": "YANGGLNYSYRGYGALSSNAQPPA", "note": "[L20A]", "protein stability index": 1.79}
{"variant": "YANGGLNYSYRGYGALSSNIQPPA", "note": "[L20I]", "protein stability index": 2.54}
{"variant": "YANGGLNYSYRGYGALSSNNQPPA", "note": "[L20N]", "protein stability index": 2.11}
{"variant": "YANGGLNYSYRGYGALSSNVQPPA", "note": "[L20V]", "protein stability index": 1.84}
{"variant": "YANGGLNYSYRGYGALSSNWQPPA", "note": "[L20W]", "protein stability index": 1.84}
{"variant": "YANGGLNYSYRGYGALSSNYQPPA", "note": "[L20Y]", "protein stability index": 1.34}
{"variant": "YANGGLNYSYRGYGALSSNPQPPA", "note": "[L20P]", "protein stability index": 1.88}
{"variant": "YANGGLNYSYRGYGALSSNEQPPA", "note": "[L20E]", "protein stability index": 1.37}
{"variant": "YANGGLNYSYRGYGALSSNSQPPA", "note": "[L20S]", "protein stability index": 2.34}
{"variant": "YANGGLNYSYRGYGALSSNLQPTA", "note": "[P23T]", "protein stability index": 1.6}
{"variant": "YANGGLNYSYRGYGALSSNLQPSA", "note": "[P23S]", "protein stability index": 1.65}
{"variant": "YANGGLNYSYRGYGALSSNLQPFA", "note": "[P23F]", "protein stability index": 2.52}
{"variant": "YANGGLNYSYRGYGALSSNLQPRA", "note": "[P23R]", "protein stability index": 1.81}
{"variant": "YANGGLNYSYRGYGALSSNLQPDA", "note": "[P23D]", "protein stability index": 2.09}
{"variant": "YANGGLNYSYRGYGALSSNLQPEA", "note": "[P23E]", "protein stability index": 2.05}
{"variant": "YANGGLNYSYRGYGALSSNLQPGA", "note": "[P23G]", "protein stability index": 2.6}
{"variant": "YANGGLNYSYRGYGALSSNLQPWA", "note": "[P23W]", "protein stability index": 2.61}
{"variant": "YANGGLNYSYRGYGALSSNLQPVA", "note": "[P23V]", "protein stability index": 1.84}
{"variant": "YANGGLNYSYRGYGALSSNLQPMA", "note": "[P23M]", "protein stability index": 2.3}
{"variant": "YANGGLNYSYRGYGALSSNLQPLA", "note": "[P23L]", "protein stability index": 1.54}
{"variant": "YANGGLNYSYRGYGALSSNLQPNA", "note": "[P23N]", "protein stability index": 2.17}
{"variant": "YANGGLNYSYRGYGALSSNLQPYA", "note": "[P23Y]", "protein stability index": 1.9}
{"variant": "YANGGLNYSYRGYGALSSNLQPIA", "note": "[P23I]", "protein stability index": 2.09}
{"variant": "YANGGLNYSYRGYGALSSNLQPKA", "note": "[P23K]", "protein stability index": 1.97}
{"variant": "YANGGLNYSYRGYGALSSNLQPQA", "note": "[P23Q]", "protein stability index": 1.77}
{"variant": "YANGGLNYSYRGYGALSSNLQPHA", "note": "[P23H]", "protein stability index": 1.34}
{"variant": "YANGGLNYSYRGYGALSSNLQPCA", "note": "[P23C]", "protein stability index": 1.92}
{"variant": "YANGGLNYSYRGYGALSSNLQPAA", "note": "[P23A]", "protein stability index": 1.81}
{"variant": "YANGGLNYSYRGYGALSRNLQPPA", "note": "[S18R]", "protein stability index": 2.21}
{"variant": "YANGGLNYSYRGYGALSTNLQPPA", "note": "[S18T]", "protein stability index": 2.05}
{"variant": "YANGGLNYSYRGYGALSQNLQPPA", "note": "[S18Q]", "protein stability index": 2.6}
{"variant": "YANGGLNYSYRGYGALSYNLQPPA", "note": "[S18Y]", "protein stability index": 1.67}
{"variant": "YANGGLNYSYRGYGALSWNLQPPA", "note": "[S18W]", "protein stability index": 2.07}
{"variant": "YANGGLNYSYRGYGALSVNLQPPA", "note": "[S18V]", "protein stability index": 1.73}
{"variant": "YANGGLNYSYRGYGALSSNLHPPA", "note": "[Q21H]", "protein stability index": 2.04}
{"variant": "YANGGLNYSYRGYGALSSNLNPPA", "note": "[Q21N]", "protein stability index": 1.64}
{"variant": "YANGGLNYSYRGYGALSSNLLPPA", "note": "[Q21L]", "protein stability index": 1.99}
{"variant": "YANGGLNYSYRGYGALSSNLSPPA", "note": "[Q21S]", "protein stability index": 2.5}
{"variant": "YANGGLNYSYRGYGALSSNLYPPA", "note": "[Q21Y]", "protein stability index": 2.29}
{"variant": "YANGGLNYSYRGYGALSSNLMPPA", "note": "[Q21M]", "protein stability index": 1.71}
{"variant": "YANGGLNYSYRGYGALSSNLFPPA", "note": "[Q21F]", "protein stability index": 2.26}
{"variant": "YANGGLNYSYRGYGALSSNLAPPA", "note": "[Q21A]", "protein stability index": 1.66}
{"variant": "YANGGLNYSYRGYGALSSNLRPPA", "note": "[Q21R]", "protein stability index": 1.75}
{"variant": "YANGGLNYSYRGYGALSSNLCPPA", "note": "[Q21C]", "protein stability index": 1.74}
{"variant": "YANGGLNYSYRGYGALSSNLVPPA", "note": "[Q21V]", "protein stability index": 1.59}
{"variant": "YANGGLNYSYRGYGALSSNLGPPA", "note": "[Q21G]", "protein stability index": 1.21}
{"variant": "YANGGLNYSYRGYGALSSNLKPPA", "note": "[Q21K]", "protein stability index": 2.17}
{"variant": "YANGGLNYSYRGYGALSSNLTPPA", "note": "[Q21T]", "protein stability index": 2.61}
{"variant": "YANGGLNYSYRGYGALSSNLWPPA", "note": "[Q21W]", "protein stability index": 1.75}
{"variant": "YANGGLNYSYRGYGALSSNLIPPA", "note": "[Q21I]", "protein stability index": 2.76}
{"variant": "YANGGLNYSYRGYGALSSNLPPPA", "note": "[Q21P]", "protein stability index": 2.28}
{"variant": "YANGGLNYSYRGYGALSSNLDPPA", "note": "[Q21D]", "protein stability index": 2.22}
{"variant": "YANGGLNYSYRGYGALSSNLEPPA", "note": "[Q21E]", "protein stability index": 2.16}
{"variant": "YANGGLNYSYRGYGALSSSLQPPA", "note": "[N19S]", "protein stability index": 2.44}
{"variant": "YANGGLNYSYRGYGALSSRLQPPA", "note": "[N19R]", "protein stability index": 1.99}
{"variant": "YANGGLNYSYRGYGALSSPLQPPA", "note": "[N19P]", "protein stability index": 2.18}
{"variant": "YANGGLNYSYRGYGALSSELQPPA", "note": "[N19E]", "protein stability index": 1.11}
{"variant": "YANGGLNYSYRGYGALSSHLQPPA", "note": "[N19H]", "protein stability index": 1.43}
{"variant": "YANGGLNYSYRGYGALSSALQPPA", "note": "[N19A]", "protein stability index": 1.71}
{"variant": "YANGGLNYSYRGYGALSSILQPPA", "note": "[N19I]", "protein stability index": 1.71}
{"variant": "YANGGLNYSYRGYGALSSWLQPPA", "note": "[N19W]", "protein stability index": 2.61}
{"variant": "YANGGLNYSYRGYGALSSVLQPPA", "note": "[N19V]", "protein stability index": 1.99}
{"variant": "YANGGLNYSYRGYGALSSKLQPPA", "note": "[N19K]", "protein stability index": 2.96}
{"variant": "YANGGLNYSYRGYGALSSGLQPPA", "note": "[N19G]", "protein stability index": 1.42}
{"variant": "YANGGLNYSYRGYGALSSTLQPPA", "note": "[N19T]", "protein stability index": 1.91}
{"variant": "YANGGLNYSYRGYGALSSLLQPPA", "note": "[N19L]", "protein stability index": 2.53}
{"variant": "YANGGLNYSYRGYGALSSFLQPPA", "note": "[N19F]", "protein stability index": 1.53}
{"variant": "YANGGLNYSYRGYGALSSDLQPPA", "note": "[N19D]", "protein stability index": 2.15}
{"variant": "YANGGLNYSYRGYGALSSQLQPPA", "note": "[N19Q]", "protein stability index": 2.14}
{"variant": "YANGGLNYSYRGYGALSSMLQPPA", "note": "[N19M]", "protein stability index": 1.88}
{"variant": "YANGGLNYSYRGYGALSSCLQPPA", "note": "[N19C]", "protein stability index": 2.05}
{"variant": "YANGGLNYSYRGYGALSSYLQPPA", "note": "[N19Y]", "protein stability index": 1.57}
{"variant": "YANGGLNYSYRGYGALSSNLQDPA", "note": "[P22D]", "protein stability index": 1.6}
{"variant": "YANGGLNYSYRGYGALSSNLQCPA", "note": "[P22C]", "protein stability index": 2.97}
{"variant": "YANGGLNYSYRGYGALSSNLQKPA", "note": "[P22K]", "protein stability index": 2.66}
{"variant": "YANGGLNYSYRGYGALSSNLQSPA", "note": "[P22S]", "protein stability index": 1.62}
{"variant": "YANGGLNYSYRGYGALSSNLQLPA", "note": "[P22L]", "protein stability index": 2.27}
{"variant": "YANGGLNYSYRGYGALSSNLQEPA", "note": "[P22E]", "protein stability index": 2.41}
{"variant": "YANGGLNYSYRGYGALSSNLQGPA", "note": "[P22G]", "protein stability index": 2.65}
{"variant": "YANGGLNYSYRGYGALSSNLQRPA", "note": "[P22R]", "protein stability index": 1.76}
{"variant": "YANGGLNYSYRGYGALSSNLQYPA", "note": "[P22Y]", "protein stability index": 3.09}
{"variant": "YANGGLNYSYRGYGALSSNLQQPA", "note": "[P22Q]", "protein stability index": 2}
{"variant": "YANGGLNYSYRGYGALSSNLQMPA", "note": "[P22M]", "protein stability index": 1.63}
{"variant": "YANGGLNYSYRGYGALSSNLQWPA", "note": "[P22W]", "protein stability index": 1.97}
